Reference: the supplement of paper PMC10567573

B1: APBB1IP (parent)
chain: LPLPPPPPEPLSQVSMWDQRWQDH
B2: SMG5 (parent)
chain: FVSIAQSEQESLLQQAQAQFRMAQ
B3: LOXL2 (parent)
chain: HISSCKLGPQVSLDPMKNVTCENG

Variants of: B1
Assay: protein stability index of a GFP-peptide fusion (GPS, HEK-293T) (PSI 1-6); higher = more stable
Conditions: c terminus: a fixed tail appended
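Note: lentivirally expressed fusions sorted by FACS into six bins by GFP to DsRed ratio, PSI derived from sequencing read proportions per bin multiplied by bin number.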

Protein stability index of substitutions, site by site:
P5: K 3.28; M 3.84; W 3.4
P7: E 4.25; K 3.97

Variants of: B2
Assay: as above
Conditions: c terminus: a fixed tail appended

Protein stability index of substitutions, site by site:
I4: S 1.87; F 2.2; H 1.9; E 2.91; P 3.08; V 2.29; Y 2.12; G 2.42; R 2.06; M 2.61; K 2.39; N 2.49; D 3.09; A 2.38; T 2.78; W 2.8; Q 3.01; C 1.83; L 1.86
E8: M 1.57; A 2.2; K 2.07; S 1.82; F 3.04; H 2.02; I 1.9; N 1.92; C 2.04; V 1.39; T 1.84; Y 1.4; Q 2.44; R 1.42; D 2.39; G 1.86; P 1.62; L 2.19
L12: A 2.69; V 2.31; K 2.4; W 1.75; F 2.02; C 2.17; I 2.53; Y 1.61; R 2.4; G 2.12; P 2.48; T 2.54; H 2.72; M 2.44; N 2.64; D 3.33; Q 2.66; E 2.48; S 2.21
L13: A 2.14
F1: D 4.28; Y 2.51; W 2.65; L 3.3; P 3.77; N 3.93; R 3.42; E 4.16; M 2.97; T 4.04; A 4.58; K 3.77; I 2.96; G 4.01; C 2.75; S 3.41; H 3.9; V 3.88; Q 3.7
A5: R 2.57; H 2.21; M 2.58; Q 2.11; N 1.86; Y 1.91; F 2.56; S 1.76; T 1.54; L 2.23; C 1.82; K 2.3; E 2.64; G 1.66; V 1.42; D 3.41; P 1.88; I 1.78
S3: K 2.28; F 1.87; Y 1.58; Q 2.62; T 2.25; R 2.31; A 1.99; C 1.66; L 1.87; I 1.61; V 1.77; P 2.22; G 2.13; D 2.22; E 2.61; H 1.74; W 2.89; M 1.6; N 1.83
S7: W 3.26; R 2.79; M 1.65; A 2.38; L 1.77; N 2.27; Y 1.57; F 2.22; K 1.98; C 1.63; E 2.85; D 2.33; G 2.61; H 2.77; I 2.56; P 2; T 2.36; Q 2.5
S11: H 2.04; V 1.59; D 2.46; K 2; L 1.99; G 1.2; R 2.37; E 2.56; A 2.4; Y 2.04; M 1.97; C 2.56; I 1.69; T 2.63; Q 2.23; W 1.79; P 2.6; F 1.56; N 2.17
E10: H 1.95; Q 2.54; N 2.03; S 1.61; Y 1.89; A 1.89; K 1.87; I 1.73; M 1.43; R 2.2; D 2.19; W 2.89; V 2.85; T 1.52; P 1.96; C 2.07; F 2.2; G 1.6; L 2.14
V2: M 2.9; P 3.8; A 3.24; N 4.14; T 3.35; W 2.98; R 3.45; G 3.65; L 2.99; K 3.12; F 2.22; H 2.43; Q 2.9; Y 2.69; I 2.59; C 2.82; E 3.69; D 3.77; S 3.45
Q9: W 1.67; L 3.25; P 1.63; S 2.02; C 3.07; T 2.9; N 2.08; D 2.15; A 1.56; M 2.02; G 1.95; V 1.91; Y 1.21; K 1.73; H 2.2; F 2.32; E 2.25; R 1.85; I 1.67
Q6: G 1.85; N 1.97; D 2.75; E 2.93; C 1.44; T 1.84; Y 2.32; H 1.92; P 2.35; L 1.79; R 2.33; S 2.25; F 2.15; K 2.26; V 1.53; I 2.02; A 1.9; M 2.19

Variants of: B3
Assay: as above
Conditions: c terminus: a fixed tail appended

Protein stability index, by site and new letter:
V19: M 3.55; N 4.57; T 3.71; Q 4.08; S 4.38; P 4.2; R 4.26; W 2.99; Y 3.76
G24: C 3.37; Q 4; F 3.34; D 4.01; N 4.12; Y 3.29; T 4.05; E 4.47; L 3.45; P 3.79; V 3.67; W 2.93; R 3.58; S 4.25; A 3.65; M 3.52; K 3.82; H 3.94; I 3.39
N23: P 3.63; A 3.53; W 2.21; C 4.01; D 4.38; K 3.98; I 2.9; G 3.85; M 3.26; R 3.58; S 3.91; H 3.61; Q 4.08; V 3.53; Y 3.35; F 2.93; T 3.77; L 3.1; E 4.63
C21: W 3.75; A 4.41; L 3.88; E 4.92; P 4.17; D 4.79; H 4.03; F 3.65; I 3.53; V 4.1; K 4.06; Q 3.86; T 4.08; Y 3.36; M 3.61; G 4.05; N 4.14; R 3.94; S 4.63
E22: C 3.22; S 3.5; F 2.46; L 2.58; D 3.82; M 2.9; Y 2.44; Q 3.47; W 2.09; I 2.92; A 3.51; T 3.23; G 3.17; R 3.5; P 3.47; H 3.18; N 3.35; K 3.89; V 3
T20: G 3.87; L 4.37; Q 4.02; C 3.37; Y 3.58; E 4.16; A 3.99; M 3.64; P 4.26; F 2.48; K 4.26; S 4.08; N 4.13; H 3.85; V 3.83; R 3.88; W 2.31; D 4.4; I 3.84
